Changes are numbered by the printed parent chain.

Test [1] deals with FGFR3 (coated on wells) (UniProt P22607). Nature of the test: ELISA on FGFR3-coated wells after 1 hour at 60 C and 1 hour back at room temperature [panel A]. (ELISA stands for enzyme-linked immunosorbent assay.)
The target of test [2] is T1, FGFR3 (coated on wells) (UniProt P22607 23-375, limits assumed).
T1 construct: Coated at 2 ug/ml on Maxisorp plates; also called Fibroblast Growth Factor Receptor 3
T1 sequence (looked up): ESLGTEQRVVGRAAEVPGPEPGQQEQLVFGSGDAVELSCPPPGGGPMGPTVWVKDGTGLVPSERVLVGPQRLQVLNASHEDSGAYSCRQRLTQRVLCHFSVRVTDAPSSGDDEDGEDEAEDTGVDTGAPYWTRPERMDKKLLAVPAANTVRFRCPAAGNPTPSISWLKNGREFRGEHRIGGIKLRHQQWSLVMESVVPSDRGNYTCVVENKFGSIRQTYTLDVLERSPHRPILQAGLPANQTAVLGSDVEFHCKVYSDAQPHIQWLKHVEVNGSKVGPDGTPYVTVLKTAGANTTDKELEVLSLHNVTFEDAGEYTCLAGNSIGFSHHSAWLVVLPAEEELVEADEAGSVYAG
Nature of the test: ELISA on FGFR3-coated wells (2 ug/ml), bound sMICA detected with NKG2D-Fc and anti-Fc-HRP. As for the experimental part: The purified MICA-α3-iFv proteins were tested in a FGFR3-binding ELISA to confirm simultaneous binding to the FGFR3 target and the NKG2D receptor. FGFR3 in phosphate buffered saline (PBS) was coated onto Maxisorp plates at 2 ug/ml concentration. Each MICA protein was titrated, allowed to bind FGFR3 for 1 hour, and washed to remove unbound sMICA protein. The bound MICA-α3-iFv protein was detected using NKG2D-Fc and anti-Fc-HRP conjugate.

Test [3] addresses T2, human NKG2D-Fc (human, UniProt P26718 78-216, limits assumed).
T2 construct: construct not described; also called human NKG2D-Fc reagent; not shown: Fc part
T2 sequence (looked up): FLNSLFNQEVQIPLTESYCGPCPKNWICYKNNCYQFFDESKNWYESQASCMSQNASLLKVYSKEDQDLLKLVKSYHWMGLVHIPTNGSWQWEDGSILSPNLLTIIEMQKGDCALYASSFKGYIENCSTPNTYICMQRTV
Briefly: competition ELISA, 2 nM human NKG2D-Fc on coated WT sMICA. The source says: (§1) As for the NKG2D ligands (NKG2DLs) in the above example, we attached polypeptides directly to each of these 4 modified α1-α2 NKG2DLs using a linker peptide. The 4 His-tagged proteins (SEQ ID NOs.: 131-134) were expressed in insect cells and purified to characterize their NKG2D binding affinities and kinetic binding parameters. Using a competitive binding ELISA, we determined the relative NKG2D binding affinities of the 4 modified α1-α2 variants.

The target in test [4] is T3, biotinylated human NKG2D (human, UniProt P26718 78-216, limits assumed, biotinylated (site not stated)).
T3 construct: Surface-coated in biolayer interferometry (Octet); also called recombinant biotinylated NKG2D
T3 sequence (looked up): T2 sequence (looked up)
Briefly: BLI (Octet). Background: In BLI a coated tip is dipped into the sample, and binding shifts an interference pattern.

Test [5] addresses NKG2D receptor on NKL effector cells (human) (UniProt P26718). Briefly: cell-based or functional assay.
For test [6], the target named is T2, human NKG2D-Fc. Nature of the test: competition ELISA, human NKG2D-Fc on coated WT sMICA.
Description: as §1

Test [7] concerns the target T3, biotinylated human NKG2D. Nature of the test: BLI (Octet), coated biotinylated human NKG2D, 100 nM analyte.
Test [8] has as its target T3, biotinylated human NKG2D. Briefly: BLI (Octet), Kd = kOFF/kON.
The target of test [9] is T1, FGFR3 (coated on wells). Briefly: ELISA on FGFR3-coated wells after 1 hour at 80 C and 1 hour back at room temperature [panel B].
For another test, the target named is T4, mouse NKG2D-Fc (mouse, UniProt O54709 94-232, limits assumed).
T4 construct: Construct not described; also called murine NKG2D-Fc; murine NKG2D; not shown: Fc part
T4 sequence (looked up): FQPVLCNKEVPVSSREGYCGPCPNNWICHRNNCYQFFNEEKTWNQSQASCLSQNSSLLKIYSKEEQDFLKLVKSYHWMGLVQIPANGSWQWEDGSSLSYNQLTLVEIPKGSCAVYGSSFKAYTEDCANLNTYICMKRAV
Nature of the test: competition ELISA: titrated soluble protein inhibits binding of mouse NKG2D-Fc to plate-coated MICA [panel B].
Description: as §1

In the next test the target is T5, integrin αVβ5 (UniProt P06756 31-992; P18084 24-719).
T5 construct: Coated on the ELISA plate
Nature of the test: ELISA, coated integrin, anti-MICA-HRP.

Another test has as its target T6, integrin αVβ3 (UniProt P06756 31-992; P05106 27-718).
T6 construct: Coated on the ELISA plate
Briefly: ELISA, coated integrin, anti-MICA-HRP.

T6 sequence (P06756 31-992, chain 1 of 2): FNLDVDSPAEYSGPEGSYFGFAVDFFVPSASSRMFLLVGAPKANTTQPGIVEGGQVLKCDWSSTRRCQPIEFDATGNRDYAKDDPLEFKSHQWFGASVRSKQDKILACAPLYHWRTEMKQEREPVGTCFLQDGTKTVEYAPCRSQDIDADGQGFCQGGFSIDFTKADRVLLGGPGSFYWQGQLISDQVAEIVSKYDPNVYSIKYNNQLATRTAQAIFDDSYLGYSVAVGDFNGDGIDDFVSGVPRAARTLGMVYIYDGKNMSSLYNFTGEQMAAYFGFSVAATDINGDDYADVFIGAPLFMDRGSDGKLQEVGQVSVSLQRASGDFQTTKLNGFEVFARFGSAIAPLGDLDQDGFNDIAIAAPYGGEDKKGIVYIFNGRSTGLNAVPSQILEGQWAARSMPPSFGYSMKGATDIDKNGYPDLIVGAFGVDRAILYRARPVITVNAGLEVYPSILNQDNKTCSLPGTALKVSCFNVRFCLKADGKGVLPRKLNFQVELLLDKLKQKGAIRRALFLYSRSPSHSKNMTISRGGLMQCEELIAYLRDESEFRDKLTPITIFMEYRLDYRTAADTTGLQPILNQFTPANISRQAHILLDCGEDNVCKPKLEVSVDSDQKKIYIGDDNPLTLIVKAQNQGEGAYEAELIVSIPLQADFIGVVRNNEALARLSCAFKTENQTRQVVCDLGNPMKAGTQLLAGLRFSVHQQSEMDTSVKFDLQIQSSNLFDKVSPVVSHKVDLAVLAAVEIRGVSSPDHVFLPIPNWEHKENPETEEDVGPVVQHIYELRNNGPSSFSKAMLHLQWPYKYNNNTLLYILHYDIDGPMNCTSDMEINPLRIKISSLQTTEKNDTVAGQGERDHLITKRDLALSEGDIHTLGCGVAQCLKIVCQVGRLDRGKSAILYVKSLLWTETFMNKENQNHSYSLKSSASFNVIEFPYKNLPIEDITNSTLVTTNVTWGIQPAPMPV
T6 sequence (P05106 27-718, chain 2 of 2): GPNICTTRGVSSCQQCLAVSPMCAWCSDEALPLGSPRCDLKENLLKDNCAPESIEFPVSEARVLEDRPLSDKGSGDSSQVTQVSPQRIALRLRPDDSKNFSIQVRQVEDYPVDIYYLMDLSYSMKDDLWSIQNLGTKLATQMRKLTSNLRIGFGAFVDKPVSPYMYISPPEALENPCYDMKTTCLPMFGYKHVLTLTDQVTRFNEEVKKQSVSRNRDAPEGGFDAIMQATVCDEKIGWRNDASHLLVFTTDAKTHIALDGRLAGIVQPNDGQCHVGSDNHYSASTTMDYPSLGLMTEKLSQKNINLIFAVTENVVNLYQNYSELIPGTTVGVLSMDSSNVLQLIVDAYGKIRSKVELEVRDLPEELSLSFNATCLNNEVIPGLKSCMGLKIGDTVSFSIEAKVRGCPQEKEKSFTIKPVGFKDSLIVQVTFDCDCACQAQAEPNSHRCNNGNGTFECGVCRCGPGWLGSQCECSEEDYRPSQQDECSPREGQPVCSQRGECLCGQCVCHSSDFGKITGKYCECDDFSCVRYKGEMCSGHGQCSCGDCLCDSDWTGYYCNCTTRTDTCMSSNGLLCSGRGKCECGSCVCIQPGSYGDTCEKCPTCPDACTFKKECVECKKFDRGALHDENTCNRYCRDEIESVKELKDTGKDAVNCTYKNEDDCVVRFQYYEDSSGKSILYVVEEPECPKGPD
T5 sequence (P06756 31-992, chain 1 of 2): as the sequence (P06756 31-992, chain 1 of 2) above
T5 sequence (P18084 24-719, chain 2 of 2): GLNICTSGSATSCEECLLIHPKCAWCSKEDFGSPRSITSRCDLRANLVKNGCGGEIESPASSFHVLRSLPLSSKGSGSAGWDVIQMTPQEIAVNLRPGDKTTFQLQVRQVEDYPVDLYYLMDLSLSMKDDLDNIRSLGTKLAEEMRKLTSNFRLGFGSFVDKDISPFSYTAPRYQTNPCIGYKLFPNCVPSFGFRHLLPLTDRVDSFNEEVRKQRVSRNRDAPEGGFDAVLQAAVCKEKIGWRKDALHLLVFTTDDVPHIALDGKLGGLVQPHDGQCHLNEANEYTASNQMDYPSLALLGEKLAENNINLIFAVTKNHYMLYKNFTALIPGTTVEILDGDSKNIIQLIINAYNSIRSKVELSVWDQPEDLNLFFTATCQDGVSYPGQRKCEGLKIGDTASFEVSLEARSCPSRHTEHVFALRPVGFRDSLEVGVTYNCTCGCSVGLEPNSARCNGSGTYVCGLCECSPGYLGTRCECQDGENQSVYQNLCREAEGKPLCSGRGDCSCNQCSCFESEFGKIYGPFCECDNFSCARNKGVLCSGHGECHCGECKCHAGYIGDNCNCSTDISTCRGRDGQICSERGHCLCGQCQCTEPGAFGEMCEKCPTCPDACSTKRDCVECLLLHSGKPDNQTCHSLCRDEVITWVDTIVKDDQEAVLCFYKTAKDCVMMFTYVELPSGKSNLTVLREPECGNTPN

In the case of “MICA-scFv (traditional scFv constructed from MAbR3 fused to the C-terminus of soluble MICA) (from UniProt Q29983 24-307) (designed binder)”, in the test with FGFR3 (coated on wells) [1], the EC50 (read off the curve) came to 5000 pM.

B1: MICA-α3-iFv.1 (designed binder)
chain: EPHSLRYNLTVLSWDGSVQSGFLTEVHLDGQPFLRCDRQKCRAKPQGQWAEDVLGNKTWDRETRDLTGNGKDLRMTLAHIKDQKEGLHSLQEIRVCEIHEDNSTRSSQHFYYDGELFLSQNLETKEWTMPQSSRAQTLAMNVRNFLKEDAMKTKTHYHAMHADCLQELRRYLKSGVVLRRTVPPMVQVTRSEASGDRVTITCRASQDVSTAVAWYQQKPGKAPKLLIYSASFLYSGVPSRFSGSGSGTDFTLTISSLQPEDFATYYCQQSYTTPPTFGQGTKVEIKGGSSRSSSSGGGGSGGGGEVQLVESGGGLVQPGGSLRLSCAASGFTFTSTGISWVRQAPGKGLEWVGRIYPTNGSTNYADSVKGRFTISADTSKNTAYLQMNSLRAEDTAVYYCARTYGIYDLYVDYTEYVMDYWGQGTLVTVSSGGSSRSSSSGGGGSGGGGDIQMTQSPSSLSASGQITVTCRASGFYPWNITLSWRQDGVSLSHDTQQWGDVLPDGQGTYQTWVATRISQGEEQRFTCYMEHSGQHSTHPVPSGKGSHHHHHH
Regarding B1, the “EC50 (read off the curve)” value with FGFR3 (coated on wells) [2] is approximately 1000 pM.

B2: α1-α2 variant 16 (designed binder)
chain: EPHSLRYNLTVLSWDGSVQSGFLTEVHLDGQPFLRCDRQKCRAKPQGQWAEDVLGNKTWDRETRDLTGWGKDLRMTLAHIKDQKEGLHSLQEIRVCEIHEDNSTRSSQHFYYDGELFLSQNLETLEWTMPQSSRAQTLAMNVRNFLKEDAMETDTHYHAMRADCLQELRRYLKSGVVLRRTVPPMVQVTRSEASGGSGDRVTITCRASQDVSTAVAWYQQKPGKAPKLLIYSASFLYSGVPSRFSGSGSGTDFTLTISSLQPEDFATYYCQQSYTTPPTFGQGTKVEIKGGSSRSSSSGGGGSGGGGEVQLVESGGGLVQPGGSLRLSCAASGFTFTSTGISWVRQAPGKGLEWVGRIYPTNGSTNYADSVKGRFTISADTSKNTAYLQMNSLRAEDTAVYYCARTYGIYDLYVDYTEYVMDYWGQGTLVTVSSGGSSRSSSSGGGGSGGGGDIQMTQSPSSLSASGGSGQITVTCRASGFYPWNITLSWRQDGVSLSHDTQQWGDVLPDGQGTYQTWVATRISQGEEQRFTCYMEHSGQHSTHPVPSGKGSHHHHHH
notes: His-tagged protein from insect cells, modified α1-α2 domain with an attached polypeptide
In the test with human NKG2D-Fc [3], B2 had an IC50 of 700 pM. Also, in the test with biotinylated human NKG2D [4], the “fold affinity increase relative to WT α1-α2” value is approximately 30 fold and the “fold reduction in the off-rate relative to WT” value was 18 fold. The NK-mediated lysis of FGFR3-expressing P815 cells (calcein release) in test [5] is 15 fold. Also, the “fold better binding than WT NKG2DL (IC50)” value with human NKG2D-Fc [6] amounted to 27 fold. In the test with biotinylated human NKG2D [7], this molecule returned a koff of 9e-05 s⁻¹ and a kon of 200000 M⁻¹ s⁻¹. The same molecule had a Kd in the test with biotinylated human NKG2D [8] of 500 pM.

B3: MICA-α3-iFv.2 (designed binder)
chain: B2 chain with W69N, L125K, E152K, D154K, R161H
Regarding B3, the entries for the “EC50 (read off the curve)” value with FGFR3 (coated on wells) [9] and in the test with FGFR3 (coated on wells) [2] were approximately 5000 pM and approximately 2000 pM, respectively.

B4: α1-α2 variant 17 (designed binder)
chain: B2 chain with G68L
notes: as for B2
The molecule B4 registered an IC50 with human NKG2D-Fc [3] of 600 pM. In addition, in the test with biotinylated human NKG2D [4], the “fold affinity increase relative to WT α1-α2” value is approximately 30 fold and the “fold reduction in the off-rate relative to WT” value stood at 18 fold. Further, the “IC50 (read off the curve)” value with mouse NKG2D-Fc is approximately 1000 pM. The NK-mediated lysis of FGFR3-expressing P815 cells (calcein release) in test [5] is 15 fold. Further, in the test with human NKG2D-Fc [6], the “fold better binding than WT NKG2DL (IC50)” value stood at 32 fold. For the same molecule, in the test with biotinylated human NKG2D [7], the koff is 7e-05 s⁻¹ and the kon was 200000 M⁻¹ s⁻¹. Binding with biotinylated human NKG2D [8] was characterised by a dissociation constant (Kd) of 400 pM.

B5: α1-α2 variant 18 (designed binder)
chain: B2 chain with S20P, G68L
notes: as for B2
Molecule B5 came in with an IC50 with human NKG2D-Fc [3] of 500 pM. Also, in the test with biotinylated human NKG2D [4], the “fold affinity increase relative to WT α1-α2” value was approximately 30 fold and the “fold reduction in the off-rate relative to WT” value turned out to be 18 fold. For the same molecule, in the test with mouse NKG2D-Fc, the “IC50 (read off the curve)” value is approximately 1000 pM. Moreover, the NK-mediated lysis of FGFR3-expressing P815 cells (calcein release) in [5] was 15 fold. In addition, the “fold better binding than WT NKG2DL (IC50)” value with human NKG2D-Fc [6] was 38 fold. In the test with biotinylated human NKG2D [7], this molecule gave a koff of 9e-05 s⁻¹ and a kon of 230000 M⁻¹ s⁻¹. In the test with biotinylated human NKG2D [8], this molecule came in with a Kd of 400 pM.

B6: soluble MICA generated from pKK35 (loop 3 insert His10sp) (designed binder)
chain: EPHSLRYNLTVLSWDGSVQSGFLTEVHLDGQPFLRCDRQKCRAKPQGQWAEDVLGNKTWDRETRDLTGNGKDLRMTLAHIKDQKEGLHSLQEIRVCEIHEDNSTRSSQHFYYDGELFLSQNLETKEWTMPQSSRAQTLAMNVRNFLKEDAMKTKTHYHAMHADCLQELRRYLKSGVVLRRTVPPMVNVTRSEASEGNITVTCRASGFYPWNITLSWRQDGVSLSHDTQQWGDVLPDGNGTYQTWVATRISGGSGGGSHHHHHHHHHHSGGSGGGCYMEHSGNHSTHPVPSGK
Consider B6, for which, in the test with integrin αVβ5, the αvβ5 signal is 0.392 OD and the αvβ5 signal/ng (signal/ng MICA) came out at 2.31. In addition, in the test with integrin αVβ3, the αvβ3 signal turned out to be 0.419 OD and the αvβ3 signal/ng (signal/ng MICA) stood at 2.46.

As usually defined, the EC50 (read off the curve) is the concentration at which the effect is half-maximal. By IC50 is commonly meant the concentration that gives 50% inhibition. A low value points to greater potency. By koff is commonly meant the rate constant with which the complex falls apart. A low value points to a long-lived complex. The term kon denotes the second-order rate constant of association. Read a low kon as slower complex formation. The term Kd denotes the equilibrium constant for the complex coming apart.
